Measurements: patent US20190233493A1 (Sanofi, published 2019)
*1 amine or outer side, *2 acyl side, *3 side chain or, on linkers, in order; H or OH if unused. Primed or numbered codes have the meaning given here. Side-chain parts run from the residue outwards. [ ]: non-standard residue; d: D form. The star is where a group is joined. PEG12 = NCCOCCOCCOCCOCCOCCOCCOCCOCCOCCOCCOCCOCCC(=O)O; γGlu = O=C(O)[C@H](CCC(=O)[*:2])N[*:1]; Stearoyl = CCCCCCCCCCCCCCCCCC(=O)*; Palmitoyl = CCCCCCCCCCCCCCCC(=O)*; αMeK = C[C@](N)(CCCCN)C(=O)O; Nle = CCCC[C@H](N)C(=O)O; PEG2′ = PEG2 spacer unit; PEG2″ = not defined here; Aib = CC(C)(N)C(=O)O

T1: RXFP1 receptor (UniProt Q9HBX9 1-757, limits assumed)
T1 sequence (looked up): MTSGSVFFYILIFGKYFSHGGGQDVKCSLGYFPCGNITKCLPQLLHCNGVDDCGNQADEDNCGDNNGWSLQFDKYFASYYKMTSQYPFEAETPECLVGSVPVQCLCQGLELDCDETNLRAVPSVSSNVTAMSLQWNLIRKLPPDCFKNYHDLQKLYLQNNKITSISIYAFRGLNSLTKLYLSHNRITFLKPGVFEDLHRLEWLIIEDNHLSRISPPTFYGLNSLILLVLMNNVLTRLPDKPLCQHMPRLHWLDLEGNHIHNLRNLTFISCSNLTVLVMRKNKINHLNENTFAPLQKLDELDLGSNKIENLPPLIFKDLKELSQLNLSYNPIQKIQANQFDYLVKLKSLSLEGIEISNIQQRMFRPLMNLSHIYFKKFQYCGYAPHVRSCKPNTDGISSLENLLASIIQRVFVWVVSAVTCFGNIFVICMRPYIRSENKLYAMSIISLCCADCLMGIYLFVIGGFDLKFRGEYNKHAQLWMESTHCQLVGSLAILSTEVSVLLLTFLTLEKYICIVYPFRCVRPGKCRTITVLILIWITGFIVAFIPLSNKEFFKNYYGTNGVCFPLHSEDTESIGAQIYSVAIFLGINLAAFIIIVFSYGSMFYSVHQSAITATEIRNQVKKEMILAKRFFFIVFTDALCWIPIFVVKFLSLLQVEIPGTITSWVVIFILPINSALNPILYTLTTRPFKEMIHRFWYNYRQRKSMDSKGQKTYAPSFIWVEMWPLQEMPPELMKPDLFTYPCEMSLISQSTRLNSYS


Molecular target: T1, RXFP1 receptor
Test: cell-based or functional assay

| Binder | EC50 (nM), OVCAR 5 cells (cAMP) [nM] | EMax, OVCAR 5 cells (cAMP) [%] |
| --- | --- | --- |
| Ac-LEGREKVRAK(Ac)I[Aib][Aib]EG[Nle]STWS[Aib]RKK([PEG2″-PEG2″-γGlu-γGlu-γGlu-Stearoyl])-NH2 [peptide of SEQ ID NO: 73] | 0.12 | 90 |
| Ac-LEGREKVRAK(Ac)I[Aib][Aib]EG[Nle]STWS[Aib]RKK(Ac)K([PEG2′-PEG2′-PEG2′-γGlu-γGlu-γGlu-Palmitoyl])-NH2 [peptide of SEQ ID NO: 63] | 0.84 | 80 |
| Ac-LEGREKVRAK(Ac)I[Aib][Aib]EG[Nle]STWS[αMeK]RKK(Ac)K([PEG2″-PEG2″-PEG2″-γGlu-γGlu-γGlu-γGlu-Palmitoyl])-NH2 [peptide of SEQ ID NO: 65] | 0.12 | 93 |
| Ac-LEGREKVRAQI[Aib][Aib]EG[Nle]STWS[Aib]RKKK([PEG2″-PEG2″-γGlu-γGlu-γGlu-Stearoyl])-NH2 [peptide of SEQ ID NO: 71] | 0.52 | 87 |
| Ac-LEGREKVRAK(Ac)I[Aib][Aib]EG[Nle]STWS[Aib]RK(Ac)KK([PEG2″-PEG2″-γGlu-γGlu-γGlu-Stearoyl])-NH2 [peptide of SEQ ID NO: 72] | 0.17 | 93 |
| Ac-LEGREKVRAQI[Aib][Aib]EGMSTWS[Aib]RKK([γGlu-γGlu-γGlu-Palmitoyl])-NH2 (SMILES CCCCCCCCCCCCCCCC(=O)N[C@@H](CCC(=O)N[C@@H](CCC(=O)N[C@@H](CCC(=O)NCCCC[C@H](NC(=O)[C@H](CCCCN)NC(=O)[C@H](CCCNC(=N)N)NC(=O)C(C)(C)NC(=O)[C@H](CO)NC(=O)[C@H](Cc1c[nH]c2ccccc12)NC(=O)[C@@H](NC(=O)[C@H](CO)NC(=O)[C@H](CCSC)NC(=O)CNC(=O)[C@H](CCC(=O)O)NC(=O)C(C)(C)NC(=O)C(C)(C)NC(=O)[C@@H](NC(=O)[C@H](CCC(N)=O)NC(=O)[C@H](C)NC(=O)[C@H](CCCNC(=N)N)NC(=O)[C@@H](NC(=O)[C@H](CCCCN)NC(=O)[C@H](CCC(=O)O)NC(=O)[C@H](CCCNC(=N)N)NC(=O)CNC(=O)[C@H](CCC(=O)O)NC(=O)[C@H](CC(C)C)NC(C)=O)C(C)C)[C@@H](C)CC)[C@@H](C)O)C(N)=O)C(=O)O)C(=O)O)C(=O)O) [peptide of SEQ ID NO: 7] | 17.6 | 87 |
| Ac-LEGREKVRAQI[Aib][Aib]EGESTWS[Aib]RKKK([PEG2″-PEG2″-γGlu-γGlu-γGlu-Stearoyl])-NH2 [peptide of SEQ ID NO: 68] | 0.63 | 94 |
| Ac-LEGREKVRAQI[Aib][Aib]EG[Nle]STWS[Aib]RKKK([PEG2″-PEG2″-PEG2″-γGlu-γGlu-γGlu-Stearoyl])-NH2 [peptide of SEQ ID NO: 75] | – | 88 |
| Ac-LEGREKVRAQI[Aib][Aib]EG[Nle]STWS[Aib]RKK([γGlu-γGlu-γGlu-Palmitoyl])-NH2 (SMILES CCCCCCCCCCCCCCCC(=O)N[C@@H](CCC(=O)N[C@@H](CCC(=O)N[C@@H](CCC(=O)NCCCC[C@H](NC(=O)[C@H](CCCCN)NC(=O)[C@H](CCCNC(=N)N)NC(=O)C(C)(C)NC(=O)[C@H](CO)NC(=O)[C@H](Cc1c[nH]c2ccccc12)NC(=O)[C@@H](NC(=O)[C@H](CO)NC(=O)[C@H](CCCC)NC(=O)CNC(=O)[C@H](CCC(=O)O)NC(=O)C(C)(C)NC(=O)C(C)(C)NC(=O)[C@@H](NC(=O)[C@H](CCC(N)=O)NC(=O)[C@H](C)NC(=O)[C@H](CCCNC(=N)N)NC(=O)[C@@H](NC(=O)[C@H](CCCCN)NC(=O)[C@H](CCC(=O)O)NC(=O)[C@H](CCCNC(=N)N)NC(=O)CNC(=O)[C@H](CCC(=O)O)NC(=O)[C@H](CC(C)C)NC(C)=O)C(C)C)[C@@H](C)CC)[C@@H](C)O)C(N)=O)C(=O)O)C(=O)O)C(=O)O) [peptide of SEQ ID NO: 8] | 26.7 | 98 |
| Ac-LEGREKVRAQI[Aib][Aib]EG[Nle]STWS[Aib]RKK([PEG2″-PEG2″-PEG2″-γGlu-γGlu-γGlu-Stearoyl])-NH2 [peptide of SEQ ID NO: 74] | 0.07 | 85 |
| Ac-LEGREKVRAQI[Aib][Aib]EG[Nle]STWS[Aib]RKK([PEG2″-PEG2″-γGlu-γGlu-γGlu-Stearoyl])-NH2 [peptide of SEQ ID NO: 67] | 0.39 | 89 |
| Ac-LEGREKVR[Aib]QI[Aib][Aib]EG[Nle]STWS[Aib]RKKK([PEG2″-PEG2″-γGlu-γGlu-γGlu-Stearoyl])-NH2 [peptide of SEQ ID NO: 69] | 0.56 | 87 |
| Ac-LEGREKVRAK(Ac)I[Aib][Aib]EG[Nle]STWS[Aib]RKK(Ac)K([PEG2″-PEG2″-PEG2″-PEG2″-γGlu-γGlu-γGlu-Palmitoyl])-NH2 [peptide of SEQ ID NO: 64] | 0.2 | 81 |
| Ac-LEGREKVRAK(Ac)I[Aib][Aib]EG[Nle]STWS[Aib]RKK(Ac)K([PEG12-γGlu-γGlu-γGlu-Palmitoyl])-NH2 (SMILES CCCCCCCCCCCCCCCC(=O)N[C@@H](CCC(=O)N[C@@H](CCC(=O)N[C@@H](CCC(=O)NCCOCCOCCOCCOCCOCCOCCOCCOCCOCCOCCOCCOCCC(=O)NCCCC[C@H](NC(=O)[C@H](CCCCNC(C)=O)NC(=O)[C@H](CCCCN)NC(=O)[C@H](CCCNC(=N)N)NC(=O)C(C)(C)NC(=O)[C@H](CO)NC(=O)[C@H](Cc1c[nH]c2ccccc12)NC(=O)[C@@H](NC(=O)[C@H](CO)NC(=O)[C@H](CCCC)NC(=O)CNC(=O)[C@H](CCC(=O)O)NC(=O)C(C)(C)NC(=O)C(C)(C)NC(=O)[C@@H](NC(=O)[C@H](CCCCNC(C)=O)NC(=O)[C@H](C)NC(=O)[C@H](CCCNC(=N)N)NC(=O)[C@@H](NC(=O)[C@H](CCCCN)NC(=O)[C@H](CCC(=O)O)NC(=O)[C@H](CCCNC(=N)N)NC(=O)CNC(=O)[C@H](CCC(=O)O)NC(=O)[C@H](CC(C)C)NC(C)=O)C(C)C)[C@@H](C)CC)[C@@H](C)O)C(N)=O)C(=O)O)C(=O)O)C(=O)O) [peptide of SEQ ID NO: 66] | 0.57 | 83 |
| Ac-LEGREKVRAQI[Aib][Aib]EGQSTWS[Aib]RKKK([PEG2″-PEG2″-γGlu-γGlu-γGlu-Stearoyl])-NH2 [peptide of SEQ ID NO: 70] | 0.28 | 86 |
